This passage reports protein stability index results from the supplement of paper PMC9732359.

± gives the uncertainty stated by the source.

A short description of the data set: protein stability index of a GFP-peptide fusion (yeast GPS) (PSI 1-4); higher = more stable; sorted into four equal gates, so the index is relative within each strain. In a few lines: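 Yeast carrying a pooled library were grown to mid-log phase in leucine-free medium. Each library plasmid expresses Cherry and has a tiled 17-residue yeast protein peptide fused downstream of GFP. Cells were sorted into four equal gates by GFP/Cherry ratio, and plasmids from each gate were PCR-amplified, Illumina-sequenced and assigned to strains by barcode. Summing, across gates, the read frequency times the gate number gave each peptide's protein stability index.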

For the sequence EFIAHRLGLIPLQSMDI [RPB3], the protein stability index is, setting by setting: (doa10∆) 2.69 ± 0.13; (pdr5∆) 2.04 ± 0.17; (san1∆) 1.92 ± 0.23.

On to EFIQDSAARGLSLVYEI [ECM29], for which, under “ubr1∆”, the protein stability index is 3.64 ± 0.12.

EFLINEGTPINNVYFAA [RPN14]: the protein stability index (doa10∆) amounted to 2.33 ± 0.07, the protein stability index (pdr5∆) turned out to be 2.17 ± 0.052, the protein stability index (san1∆) was 1.91 ± 0.087 and the protein stability index (ubr1∆) came out at 1.94 ± 0.047.

Regarding EFSPRLHNIWSNGLLSI [YML103C/NUP188], the protein stability index amounted to 1.85 ± 0.061 (doa10∆), 1.91 ± 0.059 (pdr5∆), 2.08 ± 0.11 (san1∆) and 1.89 ± 0.046 (ubr1∆).

Turning to EFVDDYTVNVVDVFAMP [RPN11], the protein stability index is 3.08 ± 0.19 (doa10∆), 3.01 ± 0.17 (pdr5∆), 2.91 ± 0.12 (san1∆) and 3.13 ± 0.13 (ubr1∆).

EGAARGTSVYLVDKRID [DIS3]: the protein stability index stood at 3.38 ± 0.17 (doa10∆), 3.33 ± 0.14 (pdr5∆), 3.13 ± 0.086 (san1∆) and 3.08 ± 0.12 (ubr1∆).

On to EGGKNQAELLQLAVKII [YJL039C/NUP192], for which the protein stability index (doa10∆) stood at 2.87 ± 0.12, the protein stability index (pdr5∆) is 3.28 ± 0.081, the protein stability index (san1∆) was found to be 3.3 ± 0.2 and the protein stability index (ubr1∆) was determined as 2.72 ± 0.11.

Turning to EGIEIYDRKKLPRKEVD [RPC11], the protein stability index is 3.14 ± 0.14 (doa10∆), 2.98 ± 0.097 (pdr5∆), 1.91 ± 0.14 (san1∆) and 3.3 ± 0.17 (ubr1∆).

For EGKSVDELITEGNEKLA [RPP2A], the protein stability index reads like this: (pdr5∆) 3.23 ± 0.16; (san1∆) 3.41 ± 0.074; (ubr1∆) 3.45 ± 0.28.

In turn, EGLTYKYPARRIHTNDN [SSN3] came in with a protein stability index (doa10∆) of 2.78 ± 0.072, a protein stability index (pdr5∆) of 2.89 ± 0.073, a protein stability index (san1∆) of 2.86 ± 0.076 and a protein stability index (ubr1∆) of 2.83 ± 0.055.

EGNAQLVAIFGGQGNTD [FAS1]: the protein stability index is, setting by setting: (doa10∆) 1.45 ± 0.067; (pdr5∆) 1.94 ± 0.094; (san1∆) 2.13 ± 0.13; (ubr1∆) 1.05 ± 0.091.

For EGNQIIVFVHSRKETSR [BRR2], the protein stability index runs as follows: (doa10∆) 2.01 ± 0.055; (pdr5∆) 2.28 ± 0.054; (san1∆) 1.8 ± 0.072; (ubr1∆) 2.48 ± 0.05.

Regarding EGRSFTKAIEDAKKEMK [YLR335W/NUP2], the protein stability index is, setting by setting: (doa10∆) 2.87 ± 0.066; (pdr5∆) 2.7 ± 0.062; (san1∆) 2.83 ± 0.06; (ubr1∆) 2.59 ± 0.081.

Regarding EGVEYLREYLNLPEHIV [RPS10A], the protein stability index reads like this: (doa10∆) 3.31 ± 0.081; (pdr5∆) 3.32 ± 0.078; (san1∆) 3.2 ± 0.072; (ubr1∆) 3 ± 0.087.

EGWPKFQDTLYKKIPLL [QCR10] gave a protein stability index (doa10∆) of 2.8 ± 0.087, a protein stability index (pdr5∆) of 1.63 ± 0.079, a protein stability index (san1∆) of 1.85 ± 0.098 and a protein stability index (ubr1∆) of 1.43 ± 0.069.

On to EHFSDEETYEEKPQFKD [RPO26], for which the protein stability index by setting is: (doa10∆) 3.51 ± 0.1; (pdr5∆) 3.35 ± 0.2; (san1∆) 3.25 ± 0.15; (ubr1∆) 3.34 ± 0.1.

For EHKQLVAEIVQNVISLG [RPC82], the protein stability index reads like this: (doa10∆) 2.2 ± 0.067; (pdr5∆) 1.46 ± 0.13; (san1∆) 2.16 ± 0.25; (ubr1∆) 1.8 ± 0.1.

As for EHRIRVFFDKRIGQEVD [RPS6A], the protein stability index reads like this: (doa10∆) 3.25 ± 0.14; (pdr5∆) 3.09 ± 0.14; (san1∆) 2.6 ± 0.29; (ubr1∆) 2.87 ± 0.2.

Take EHTDVIDELIDTKLRLE [YIL149C/MLP2]: the protein stability index (doa10∆) was determined as 2.87 ± 0.052, the protein stability index (pdr5∆) is 3 ± 0.059, the protein stability index (san1∆) was 2.77 ± 0.039 and the protein stability index (ubr1∆) was found to be 2.7 ± 0.034.

Regarding EHWKVRNFKKANLVNKE [BRN1], the protein stability index was 2.06 ± 0.1 (doa10∆), 1.5 ± 0.051 (pdr5∆), 1.54 ± 0.13 (san1∆) and 1.83 ± 0.05 (ubr1∆).

Turning to EIAQANSRNAIRKLVKN [RPL19A], the protein stability index came to 2.9 ± 0.15 (doa10∆), 3.01 ± 0.083 (pdr5∆), 2.86 ± 0.11 (san1∆) and 3.1 ± 0.098 (ubr1∆).

Take EIDDTEAEVTAEVNGGD [BRR2]: the protein stability index reads like this: (doa10∆) 3.13 ± 0.088; (pdr5∆) 2.79 ± 0.12; (san1∆) 3.01 ± 0.13; (ubr1∆) 3.16 ± 0.065.

In the case of EIEDGQDGGVTPYSNES [RPO21], the protein stability index is 3.49 ± 0.1 (doa10∆), 3.35 ± 0.069 (pdr5∆), 3.38 ± 0.049 (san1∆) and 3.22 ± 0.08 (ubr1∆).

For the sequence EIEPILMEIHNILKVDS [RGR1], the protein stability index came to 1.74 ± 0.098 (doa10∆), 1.84 ± 0.1 (pdr5∆), 1.98 ± 0.15 (san1∆) and 1.76 ± 0.065 (ubr1∆).

Take EIGLLGGRYVYPVHEAH [SNU114]: the protein stability index is, setting by setting: (doa10∆) 1.85 ± 0.064; (pdr5∆) 2.55 ± 0.091; (san1∆) 2.79 ± 0.077; (ubr1∆) 2.03 ± 0.084.

EIGLLPEDALVNDFSDI [SMC3]: the protein stability index amounted to 3.44 ± 0.089 (doa10∆), 2.91 ± 0.12 (pdr5∆), 3.19 ± 0.088 (san1∆) and 3.3 ± 0.11 (ubr1∆).

As to EIINNKTSSQTSLSSKD [YMR153W/NUP53], the protein stability index worked out at 2.33 ± 0.067 (doa10∆), 2.12 ± 0.073 (pdr5∆), 2.34 ± 0.12 (san1∆) and 2.45 ± 0.045 (ubr1∆).

Take EIKVGKQRFQGCNNLIK [ARP9]: the protein stability index is 2.76 ± 0.16 (doa10∆), 3.06 ± 0.13 (pdr5∆), 3.39 ± 0.092 (san1∆) and 3.34 ± 0.12 (ubr1∆).

EILGINLANEQPVLEKP [SIR4]: the protein stability index is 3 ± 0.068 (doa10∆), 3.2 ± 0.052 (pdr5∆), 3.21 ± 0.045 (san1∆) and 3.11 ± 0.046 (ubr1∆).

In the case of EILILINDPTNKEYTLV [SIN4], the protein stability index (doa10∆) came out at 1.77 ± 0.072, the protein stability index (pdr5∆) was 2.05 ± 0.067, the protein stability index (san1∆) turned out to be 2.06 ± 0.1 and the protein stability index (ubr1∆) was 2.23 ± 0.14.

As to EIMEERNVEQKLNELDE [NNF1], the protein stability index by setting is: (doa10∆) 3.11 ± 0.08; (pdr5∆) 2.94 ± 0.077; (san1∆) 3.13 ± 0.052; (ubr1∆) 3.27 ± 0.045.

As to EIPTQIYRTTRQDGSYT [ARP9], the protein stability index by setting is: (doa10∆) 2.94 ± 0.081; (pdr5∆) 3.17 ± 0.086; (san1∆) 2.93 ± 0.083; (ubr1∆) 3.06 ± 0.059.

In the case of EIRRSLSLNLGDYGSAK [POP5], the protein stability index by setting is: (pdr5∆) 3.06 ± 0.09; (san1∆) 3.05 ± 0.18.

On to EISASESKFILEALRQN [RRP45], for which the protein stability index reads like this: (doa10∆) 2.94 ± 0.096; (pdr5∆) 2.98 ± 0.12; (san1∆) 2.88 ± 0.094; (ubr1∆) 2.81 ± 0.074.

EISRLKTSLSIKVENLN [SMC2]: the protein stability index runs as follows: (doa10∆) 2.76 ± 0.077; (pdr5∆) 2.55 ± 0.13; (san1∆) 2.39 ± 0.17; (ubr1∆) 2.56 ± 0.064.

With EKENRFEIVDREKNSLE [SMC4], the protein stability index was determined as 2.63 ± 0.09 (doa10∆), 2.93 ± 0.11 (pdr5∆), 3.1 ± 0.1 (san1∆) and 3.3 ± 0.085 (ubr1∆).

For the sequence EKFSEKMLKIWTMAFRT [ECM29], the protein stability index runs as follows: (doa10∆) 2 ± 0.11; (pdr5∆) 2.09 ± 0.1; (san1∆) 1.37 ± 0.2; (ubr1∆) 1.48 ± 0.09.

EKGKKVTGFKDEVLETV [RPS1A]: the protein stability index is 1.32 ± 0.13 (doa10∆), 1.31 ± 0.1 (pdr5∆) and 1.37 ± 0.1 (ubr1∆).

For EKIDGMDVDSVKTTLVS [RPC82], the protein stability index reads like this: (doa10∆) 2.54 ± 0.11; (pdr5∆) 2.78 ± 0.12; (san1∆) 2.73 ± 0.11; (ubr1∆) 2.1 ± 0.29.
